The target of this experiment is endostatin (UniProt P39060). Nature of the experiment: SPR (Biacore), Fn F4-5 immobilized on CM5 chip, concentration series of endostatin.

The values that follow come from patent publication US8114832.

Chain of endostatin (P39060 1572-1754): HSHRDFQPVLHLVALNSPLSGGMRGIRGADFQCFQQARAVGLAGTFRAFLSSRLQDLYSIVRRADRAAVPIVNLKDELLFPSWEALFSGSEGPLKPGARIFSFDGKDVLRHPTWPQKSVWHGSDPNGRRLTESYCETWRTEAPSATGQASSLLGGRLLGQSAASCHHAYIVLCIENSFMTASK

Regarding “Fn F4-5-His6 (from UniProt P02751 182-276)”, the concentration of ligand that results in half maximum binding is 800 nM.
